According to patent publication US20100115639A1 (PIERRE FABRE MEDICAMENT, published 2010):

Experiments:
[1] = target: c-Met receptor on A549 cells (human, UniProt P08581 25-1390); assay: cell-based or functional assay
[2] = target: C-Met-Rluc and C-Met-K1100A-YFP co-expressed in CHO stable cell lines (R. reniformis), P08581; assay: cell-based or functional assay
[3] = target: T1, recombinant SEMA domain of c-Met (UniProt P08581 27-515, limits assumed); assay: ELISA, SEMA domain coated at 3 µg/ml, hybridoma supernatants
T1 construct: domain: SEMA; also called SEMA protein
Experimental: The reaction is left to occur for 5 min at room temperature. The reaction is stopped by the addition of 50 μl/well of a 1 M H₂SO₄ solution and read on a plate reader at 450 nm.

[4] = target: T2, recombinant c-Met-Extra-Cellular Domain (ECD) fused to a human IgG1 Fc domain (R&D Systems, 358MT) (human, UniProt P08581 25-932); assay: displacement of [125I]-HGF from immobilized c-Met-Fc (FlashPlate)
T2 construct: extracellular domain; Bought; bivalent (dimeric) fusion, MW 129 kDa as printed; also called c-Met-Fc; c-Met-Fc-Tag His; not shown: human IgG1 Fc domain

[5] = target: T2, recombinant c-Met-Extra-Cellular Domain …; assay: BIAcore X, Fab as analyte on c-Met-Fc-His captured by anti-His antibody, 25°C
Experimental: (§1) For the assay, an anti-Tag histidine capture antibody was coated on CM5 sensorchips. The running buffer was HBS-EP, the flow rate was 30 μl/min and the test was performed at 25° C. Soluble c-Met (ECD M1)2-Fc-(HHHHHH)₂ antigen was captured on the sensorchip (around 270 RU), and the antibodies to be tested were used in solution as analytes. The sensorship was regenerated using Glycine, HCl pH 1.5 buffer on both flowcells for half a minute.

[6] = target: T2, recombinant c-Met-Extra-Cellular Domain …; assay: BIAcore X, Fab as analyte on c-Met-Fc-His captured by anti-His antibody, 25°C; column head misprinted
Experimental: as §1

Row | Molecule | agonist effect on c-Met phosphorylation (Mab alone, A549 cells) [1] | antagonist effect on c-Met phosphorylation in presence of HGF (A549 cells) [1] | inhibition of c-Met phosphorylation (phospho c-Met ELISA, A549 cells + HGF 100 ng/ml, antibody 30 µg/ml) [1] | basal effect on c-Met phosphorylation (antibody alone, A549 cells) [1] | inhibition of dimerization (BRET signal, CHO cells) [2] | binding result [3] | IC50 [4] | Half-Life [5] | Kd [5] | kon [5] | koff [6]
1 | 5D5 Mab, generated by Genentech, available at the ATCC (antibody) | 58% | 39% | 42% |  |  |  |  |  |  |  | 
2 | 223C4 murine monoclonal antibody (antibody, mouse IgG1, V domains shown, also called CNCM I-3786) VH: EVLLQQSGPELVKPGASVKIPCKASGYTFTDYNMDWVKQSHGMSLEWIGDINPNNGGTIFNQKFKGKATLTVDKSSSTAYMELRSLTSEDTAVYYCARGRYVGYYYAMDYWGQGTSVTVSS VL: DIQMTQSPASLSVSVGETVTITCRASENIYSNLAWYQQKQGKSPQLLVYAATNLVDGVPSRFSGSGSGTQYSLKINSLQSEDFGSYYCQHFWGPPYTFGGGTKLEIK |  |  | 80% | < 20% | 55% | no binding | 2.7 nM |  |  |  | 
3 | 11E1 murine monoclonal antibody (antibody, V domains shown, Used as hybridoma supernatant or purified Mab; also called MAb 11E1; CNCM I-3724) VH: QVQLQQSGAELAKPGASVKMSCKASGYTFTSYWMNWVKQRPGQGLEWIGYINPTTGSTDYNQKLKDKATLTADKSSNTAYMQLSSLTSEDSAVYYCAIGGYGSWFAYWGQGTLVTVSA VL: QIVLTQSPAIMSASPGEKVTLTCSASSSVSSTYLYWYQQKPGSSPKLWIYTTSILASGVPARFSGSGSGTSYSLTISSMETEDAASYFCHQWSSYPFTFGSGTKLDIK |  |  | 68% | < 20% | 69% |  | 20 nM |  |  |  | 
4 | Fab fragment of mAb 11E1 (papain cleavage) (Fab, V domains shown, also called 11E1 Fab) VH: QVQLQQSGAELAKPGASVKMSCKASGYTFTSYWMNWVKQRPGQGLEWIGYINPTTGSTDYNQKLKDKATLTADKSSNTAYMQLSSLTSEDSAVYYCAIGGYGSWFAYWGQGTLVTVSA VL: QIVLTQSPAIMSASPGEKVTLTCSASSSVSSTYLYWYQQKPGSSPKLWIYTTSILASGVPARFSGSGSGTSYSLTISSMETEDAASYFCHQWSSYPFTFGSGTKLDIK |  |  |  |  |  |  |  | 4.1 h | 0.0414 nM | 1.13e+06 M⁻¹ s⁻¹ | 4.68e-05 s⁻¹
5 | 224G11 murine monoclonal antibody (antibody, mouse IgG1, V domains shown, also called CNCM I-3731) VH: EVQLQQSGPELVKPGASVKISCKTSGYIFTAYTMHWVRQSLGESLDWIGGIKPNNGLANYNQKFKGKATLTVDKSSSTAYMDLRSLTSEDSAVYYCARSEITTEFDYWGQGTALTVSS VL: DIVLTQSPASLAVSLGQRATISCRASESVDSYANSFMHWYQQKPGQPPKLLIYRASNLESGIPARFSGSGSRTDFTLTINPVEADDVATYYCQQSKEDPLTFGSGTKLEMK |  |  | 54% | < 20% | 32% | no binding | 3 nM |  |  |  | 
6 | Fab fragment of mAb 224G11 (papain cleavage) (Fab, V domains shown, also called 224G11 Fab) VH: EVQLQQSGPELVKPGASVKISCKTSGYIFTAYTMHWVRQSLGESLDWIGGIKPNNGLANYNQKFKGKATLTVDKSSSTAYMDLRSLTSEDSAVYYCARSEITTEFDYWGQGTALTVSS VL: DIVLTQSPASLAVSLGQRATISCRASESVDSYANSFMHWYQQKPGQPPKLLIYRASNLESGIPARFSGSGSRTDFTLTINPVEADDVATYYCQQSKEDPLTFGSGTKLEMK |  |  |  |  |  |  |  | 2.5 h | 0.0348 nM | 2.04e+06 M⁻¹ s⁻¹ | 7.79e-05 s⁻¹
7 | 227H1 murine monoclonal antibody (antibody, mouse IgG1, V domains shown, also called CNCM I-3732) VH: EVQLQQSGPELVKPGASMKISCKASGYSFTDYTLNWVKQSHGKTLEWIGLINPYNGGTTYNQKFKGKATLTVDKSSSTAYMELLSLTSEDSAVYYCAREEITKDFDFWGQGTTLTVSS VL: GIVLTQSPASLAVSLGQRATISCRVSESIDTYGNSFIHWYQQKPGQPPKLLIYRASNLESGIPARFSGSGSRTDFTLTINPVEADDSATYYCQQSNEDPFTFGSGTKLEMK |  |  | 65% | < 20% | 52% | no binding | 5.8 nM |  |  |  | 
